# Measurements reported in patent US12545745B2, “Method for treating a degenerative neurological disorders comprising administering ASM inhibitor” (KYUNGPOOK NATIONAL UNIVERSITY INDUSTRY-ACADEMIC COOPERATION …, priority 2013, dated 2026).
# Assays:
# Format in all cases: in vivo, mouse
# β-amyloid = β-amyloid deposition in brain tissue of APP/PS1 mice (thioflavin S, immunofluorescence, ELISA); details: medulla and hippocampus, 50 mg/kg i.p. twice weekly, vs PBS
# Procedure: First, the cerebral cortex and hippocampus tissue of each mouse prepared in Example 1-1 were isolated, and then a tissue fragment was obtained and this was dyed with thioflavin S according to a conventional known method. The results are illustrated in FIG. 3 (cerebral cortex) and FIG. 4 (hippocampus).
# Also, immunofluorescence was performed according to a conventional known method using anti-20G10 (mouse, 1:1000) antibody against Aβ42, anti-G30 (rabbit, […]) antibody against Aβ40, anti-Iba-1 (rabbit, 1:500, Wako) antibody, anti-GFAP (rabbit, 1:500, DAKO) antibody and anti-active caspase3 (rabbit, 1:50, Chemicon) antibody. Tissue fragments were observed using a confocal laser scanning microscope equipped with Fluoview SV1000 imaging software (Olympus FV1000, Japan) or an Olympus BX51 microscope, and the percentage of the area of the dyed area with respect to the area of the entire tissue was quantified using Metamorph software (Molecular Devices).
# Also, β-amyloid deposition was confirmed using commercially available ELISA kits (Biosource). More specifically, hemispheres of the brain of each mouse were homogenized in a buffer containing 0.02 M of guanidine. Thereafter, ELISA was performed for Aβ40 and Aβ42 according to the manufacturer's instructions.
# (§1) After fixing the cerebral and hippocampal tissues of the mice, 0.5% thioflavin S (Sigma-Aldrich), anti-20G10 antibodies (mouse, 1:1000) against Aβ42, anti-G30 antibodies (rabbit, […]) against Aβ40, anti-GFAP antibodies (rabbit, 1:500, DAKO), or anti-Iba-1 antibodies (rabbit, 1:500, Wako) were co-cultured. The tissues were analyzed using a laser scanning confocal microscope equipped with Fluoview SV1000 imaging software (Olympus FV1000, Japan) or an Olympus BX51 microscope. Percentage of stained area to total tissue area was quantified and analyzed using Metamorph software (Molecular Devices).
# After fixing the mouse brain and hippocampus, 0.5% thioflavin S (Sigma-Aldrich), anti-GFAP (rabbit, 1:500, DAKO), and anti-Iba-1 (rabbit, 1:500, WAKO) were co-cultured together. The regions were analyzed using a laser scanning confocal microscope equipped with Fluoview SV1000 imaging software (Olympus FV1000, Japan) or an Olympus BX51 microscope. Percentage of stained area to total tissue area was quantified and analyzed using Metamorph software (Molecular Devices).
# Proteins were extracted from mouse brain and hippocampus, and the amounts of Abeta40 (KHB3481, Invitrogen) and Abeta42 (KHB3441, Invitrogen) were measured using ELISA.
# APP/PS1 mice [1] = assay: Morris water maze (MWM) test in APP/PS1 mice; details: 50 mg/kg i.p. twice weekly, vs PBS, FIG. 55A-55C
# Procedure: More specifically, wild type mice, APP/PS1/ASM^+/− mice, ASM^+/− mice and APP/PS1 mice were used. The mice were given four trials per day for 10 days to learn the task, and on day 11, the mice were given a probe trial in which the platform was removed. The escape latency during the test period and the time spent in the target platform on day 11 were measured. The results are illustrated in FIG. 7 and FIG. 8.
# MWM (Morris water maze) experiments were performed in a conventional manner to identify potential effects on learning and memory. Briefly, for the MWM test, mouse were learned the task four times a day for 10 days, followed by the removal of the platform on the 11th day and subsequently a probe trial performed.
# MWM (Morris water maze) experiments were performed in a conventional manner to identify potential effects on learning and memory. Briefly, for the MWM test, mice were learned the task four times a day for 10 days, followed by the removal of the platform on the 11th day and subsequently a probe trial performed.
# APP/PS1 mice [2] = assay: Fear conditioning test in APP/PS1 mice; details: 50 mg/kg i.p. twice weekly, vs PBS, FIG. 55D
# Text: More specifically, wild type mice, APP/PS1/ASM^+/− mice, ASM^+/− mice and APP/PS1 mice were used. On day 1 of the test, each mouse was individually placed into a conditioned chamber, and then after a 60-second exploratory period, a tone (10 kHz, 70 dB) was delivered for 10 seconds. This served as the conditioned stimulus (CS). The CS was coterminated with the unconditioned stimulus (US), an electrical footshock (0.3 mA, 1 s). The CS-US pairing was delivered twice at a 20-second intertrial interval. On day 2, each mouse was placed in the fear-conditioning chamber containing the same exact context, but without administration of a CS or footshock. […] On day 3, each mouse was placed in a test chamber that was different from the conditioning chamber. After a 60-second exploratory period, the tone was presented for 60 seconds without the footshock. Freezing response was measured to measure fear memory. The results are illustrated in FIG. 9 and FIG. 10.
# For the fear conditioning test, on the first day, mice were placed in a conditioning chamber, and sound stimulation (10 kHz, 70 dB) and electrical stimulation (0.3 mA, 1 s) were given. On the second day, memory for space was checked without stimulation in the same conditioning chamber as on the first day, and on the third day, a memory test for fear was performed when only sound stimulation was given in another conditioning chamber.
# astrocytes and microglia = assay: Neuroinflammation in brain of APP/PS1 mice (GFAP, Iba-1 staining, cytokine real-time PCR); details: cerebral medulla and hippocampus, vs PBS
# Procedure: as §1
# To quantify the expression levels of inflammatory cytokines (TNF-α, […] and IL-6), real-time quantitative PCR was used. […] Also, using Corbett research RG-6000 real-time PCR instrument, real-time quantitative PCR was performed with repeated 40 cycle (one cycle consisting of 95° C., 10 minutes; 95° C., 10 seconds; 58° C., 15 seconds; 72° C., 20 seconds). […]
# After fixing the mouse brain and hippocampus, 0.5% thioflavin S (Sigma-Aldrich), anti-GFAP (rabbit, 1:500, DAKO), and anti-Iba-1 (rabbit, 1:500, WAKO) were co-cultured together. The regions were analyzed using a laser scanning confocal microscope equipped with Fluoview SV1000 imaging software (Olympus FV1000, Japan) or an Olympus BX51 microscope. […]
molecule,measurement,setting,value
"ASM-ab 23A12C3: self-made monoclonal ASM antibody, Koma biotech; heavy chain SEQ ID NO. 29, light chain SEQ ID NO. 30 (antibody, 23A12C3_Heavy chain; 23A12C3_Light chain, self-made monoclonal ASM antibody, Koma biotech; 30) heavy: MGWSWIFLFLLSGTAGVHSEVQLQQSGPVLVKPGASVKMSCKASGYTFTDYYMNWVKQSHGKSLEWIGVINPYNDGTSYNQKFKGKATLTVDKSSSTAYMELNSLTSEDSAVYYCAREKLYYYGRDYAMDYWGQGTSVTVSSAKTTPPSVYPLAPGSAAQTNSMVTLGCLVKGYFPEPVTVTWNSGSLSSGVHTFPAVLQSDLYTLSSSVTVPSSTWPSQTVTCNVAHPASSTKVDKKIVPRDCGCKPCICTVPEVSSVFIFPPKPKDVLTITLTPKVTCVVVDISKDDPEVQFSWFVDDVEVHTAQTKPREEQINSTFRSVSELPIMHQDWLNGKEFKCRVNSAAFPAPIEKTISKTKGRPKAPQVYTIPPPKEQMAKDKVSLTCMITNFFPEDITVEWQWNGQPAENYKNTQPIMDTDGSYFVYSKLNVQKSNWEAGNTFTCSVLHEGLHNHHTEKSLSHSPGK light: MSSAQFLGLLLLCFQGTRCDIQMTQTTSSLSASLGDRVTISCRSSQDISNYLNWCQQKPDGTVKLLIYYTSRLHSGVPSRFSGSGSGTDYSLTISNLEQEDIATYFCQQDNTLPYTFGGGTKLEIKRADAAPTVSIFPPSSEQLTSGGASVVCFLNNFYPKDINVKWKIDGSERQNGVLNSWTDQDSKDSTYSMSSTLTLTKDEYERHNSYTCEATHKTSTSPIVKSFNRNEC",deposition of fibrillar Aβ (thioflavin S),"β-amyloid; FIG. 52A, 52B",significantly lower
same,deposition of Aβ40 (ELISA),"β-amyloid; FIG. 53A, 53B",significantly lower
same,deposition of Aβ42 (ELISA),"β-amyloid; FIG. 53A, 53B",significantly lower
same,"impairments in spatial memory, cognition and memory formation (MWM)",APP/PS1 mice [1],improved
same,"impairments in spatial memory, cognition and memory formation (fear conditioning test)",APP/PS1 mice [2],improved
same,activity of microglia (Iba-1),astrocytes and microglia; FIG. 54A,significantly reduced
same,activity of astrocytes (GFAP),astrocytes and microglia; FIG. 54B,significantly reduced
